The text below walks through data of patent US20210238260A1 (published 2021).

Assay [1] addresses T1, Factor VIIIa (FVIIIa), from recombinant FVIII (Kogenate FS; Bayer healthcare) activated with alpha-thrombin (UniProt P00451 20-2351).
T1 sequence (looked up): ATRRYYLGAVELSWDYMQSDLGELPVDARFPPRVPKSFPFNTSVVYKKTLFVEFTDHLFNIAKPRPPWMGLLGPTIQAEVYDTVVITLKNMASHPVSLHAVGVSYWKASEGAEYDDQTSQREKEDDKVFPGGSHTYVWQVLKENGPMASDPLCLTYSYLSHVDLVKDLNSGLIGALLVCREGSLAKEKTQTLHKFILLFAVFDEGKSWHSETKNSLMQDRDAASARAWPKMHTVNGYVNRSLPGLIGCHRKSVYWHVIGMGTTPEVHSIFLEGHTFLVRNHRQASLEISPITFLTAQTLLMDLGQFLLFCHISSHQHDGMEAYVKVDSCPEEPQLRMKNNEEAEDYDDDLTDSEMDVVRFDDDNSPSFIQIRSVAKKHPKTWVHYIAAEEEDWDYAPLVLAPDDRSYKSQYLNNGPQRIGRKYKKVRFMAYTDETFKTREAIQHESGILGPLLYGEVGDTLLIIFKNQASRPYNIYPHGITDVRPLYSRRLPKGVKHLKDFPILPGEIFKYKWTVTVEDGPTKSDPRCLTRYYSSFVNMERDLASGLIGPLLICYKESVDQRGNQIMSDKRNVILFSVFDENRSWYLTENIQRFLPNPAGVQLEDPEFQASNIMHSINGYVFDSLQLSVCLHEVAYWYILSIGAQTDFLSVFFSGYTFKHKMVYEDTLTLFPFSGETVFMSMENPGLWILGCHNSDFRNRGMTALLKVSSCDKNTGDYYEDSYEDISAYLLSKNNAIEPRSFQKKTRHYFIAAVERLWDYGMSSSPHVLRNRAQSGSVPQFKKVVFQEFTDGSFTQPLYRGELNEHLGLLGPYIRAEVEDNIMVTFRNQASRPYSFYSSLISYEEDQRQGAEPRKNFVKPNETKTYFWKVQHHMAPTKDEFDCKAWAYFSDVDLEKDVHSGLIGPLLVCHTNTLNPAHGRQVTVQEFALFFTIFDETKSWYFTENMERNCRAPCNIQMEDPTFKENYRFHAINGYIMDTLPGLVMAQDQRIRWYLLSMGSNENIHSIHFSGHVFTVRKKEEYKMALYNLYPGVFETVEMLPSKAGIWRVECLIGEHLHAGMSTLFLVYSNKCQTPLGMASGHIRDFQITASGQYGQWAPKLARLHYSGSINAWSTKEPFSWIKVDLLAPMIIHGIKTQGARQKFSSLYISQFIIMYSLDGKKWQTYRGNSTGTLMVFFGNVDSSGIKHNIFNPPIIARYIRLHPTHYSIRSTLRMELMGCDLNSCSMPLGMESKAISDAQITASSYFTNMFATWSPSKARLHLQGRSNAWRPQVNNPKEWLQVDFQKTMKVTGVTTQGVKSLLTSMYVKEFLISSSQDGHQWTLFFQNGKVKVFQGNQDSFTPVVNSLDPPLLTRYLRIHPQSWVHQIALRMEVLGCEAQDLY
Kind of assay: ratio of KD-app of Catalyst Biosciences WT FIXa to KD-app of the variant, same Xase assay.

Assay [2] concerns the target T1, Factor VIIIa (FVIIIa), from recombinant …. Kind of assay: apparent functional KD (KD-app): FX activation rate vs FVIIIa titration, fluorogenic Xase assay with PC/PS vesicles and Ca2+.
Assay [3] deals with T2, Factor VIIIa (recombinant FVIII, Kogenate FS, activated with alpha-thrombin) (UniProt P00451 20-2351).
T2 construct: also called FVIIIa
T2 sequence (looked up): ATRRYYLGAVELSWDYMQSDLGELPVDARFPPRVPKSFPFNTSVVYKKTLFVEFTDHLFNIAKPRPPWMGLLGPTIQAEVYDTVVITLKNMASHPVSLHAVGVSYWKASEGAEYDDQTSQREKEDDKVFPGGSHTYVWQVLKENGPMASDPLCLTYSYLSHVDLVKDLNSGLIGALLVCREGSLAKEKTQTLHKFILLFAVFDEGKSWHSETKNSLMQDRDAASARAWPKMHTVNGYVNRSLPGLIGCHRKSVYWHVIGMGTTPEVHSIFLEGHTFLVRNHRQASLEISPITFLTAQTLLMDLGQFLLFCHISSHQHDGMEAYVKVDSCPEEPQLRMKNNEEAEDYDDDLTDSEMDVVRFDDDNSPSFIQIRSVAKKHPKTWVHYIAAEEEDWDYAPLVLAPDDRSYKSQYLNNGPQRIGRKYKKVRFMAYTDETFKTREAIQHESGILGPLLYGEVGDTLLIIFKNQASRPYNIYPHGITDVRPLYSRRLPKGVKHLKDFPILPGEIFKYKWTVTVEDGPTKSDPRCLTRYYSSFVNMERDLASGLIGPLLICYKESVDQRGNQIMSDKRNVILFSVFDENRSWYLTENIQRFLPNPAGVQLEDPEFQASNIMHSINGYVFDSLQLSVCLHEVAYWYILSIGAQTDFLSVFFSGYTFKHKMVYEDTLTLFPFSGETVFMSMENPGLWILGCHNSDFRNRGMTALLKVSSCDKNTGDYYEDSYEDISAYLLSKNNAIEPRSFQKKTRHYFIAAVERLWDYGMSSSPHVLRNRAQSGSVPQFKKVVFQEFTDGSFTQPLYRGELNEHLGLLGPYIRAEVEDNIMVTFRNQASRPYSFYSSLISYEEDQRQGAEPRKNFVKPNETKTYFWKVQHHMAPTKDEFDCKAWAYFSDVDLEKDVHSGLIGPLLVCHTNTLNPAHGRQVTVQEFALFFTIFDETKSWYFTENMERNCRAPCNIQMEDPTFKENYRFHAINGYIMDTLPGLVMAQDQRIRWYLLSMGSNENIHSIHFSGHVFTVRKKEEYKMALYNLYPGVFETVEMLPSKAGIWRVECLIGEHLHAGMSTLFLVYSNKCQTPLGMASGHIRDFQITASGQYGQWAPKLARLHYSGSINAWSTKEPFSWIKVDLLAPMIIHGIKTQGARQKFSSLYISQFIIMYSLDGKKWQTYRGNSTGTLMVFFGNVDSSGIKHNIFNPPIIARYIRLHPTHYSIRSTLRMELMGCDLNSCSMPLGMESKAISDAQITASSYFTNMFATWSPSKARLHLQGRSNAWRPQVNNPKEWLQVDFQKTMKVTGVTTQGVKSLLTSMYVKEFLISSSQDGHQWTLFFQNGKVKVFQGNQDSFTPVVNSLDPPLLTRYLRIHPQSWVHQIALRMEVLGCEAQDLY
The experiment in a line: functional cofactor affinity KD-app: fluorogenic FX activation (Xase) assay, FVIIIa titrated, PC/PS vesicles, saturating FX.

B1: FIXa variant A103N/N105S/K247N/N249S/R318Y/R338E/R403E/E410N (enzyme)
light: YNSGKLEEFVQGNLERECMEEKCSFEEAREVFENTERTTEFWKQYVDGDQCESNPCLNGGSCKDDINSYECWCPFGFEGKNCELDVTCNIKNGRCEQFCKNSNDSKVVCSCTEGYRLAENQKSCEPAVPFPCGRVSVSQTSKLTR
heavy: VVGGEDAKPGQFPWQVVLNGKVDAFCGGSIVNEKWIVTAAHCVETGVKITVVAGEHNIEETEHTEQNRSVIRIIPHHNYNAAINKYNHDIALLELDEPLVLNSYVTPICIADKEYTNIFLKFGSGYVSGWGRVFHKGYSALVLQYLRVPLVDRATCLESTKFTIYNNMFCAGFHEGGRDSCQGDSGGPHVTEVEGTSFLTGIISWGEECAMKGKYGIYTKVSEYVNWIKNKTKLT
Regarding B1, the KD-WT/KD-mut in assay [1] came to 1 fold. Also, the Kd in assay [2] worked out at 0.0931 µM.

B2: FIXa-Y155F/R318Y/R338E/T343R/E410N (enzyme)
chain 1: YNSGKLEEFVQGNLERECMEEKCSFEEAREVFENTERTTEFWKQYVDGDQCESNPCLNGGSCKDDINSYECWCPFGFEGKNCELDVTCNIKNGRCEQFCKNSADNKVVCSCTEGYRLAENQKSCEPAVPFPCGRVSVSQTSKLTR
chain 2: VVGGEDAKPGQFPWQVVLNGKVDAFCGGSIVNEKWIVTAAHCVETGVKITVVAGEHNIEETEHTEQKRNVIRIIPHHNYNAAINKYNHDIALLELDEPLVLNSYVTPICIADKEYTNIFLKFGSGYVSGWGRVFHKGYSALVLQYLRVPLVDRATCLESTKFRIYNNMFCAGFHEGGRDSCQGDSGGPHVTEVEGTSFLTGIISWGEECAMKGKYGIYTKVSRYVNWIKNKTKLT
Take B2: the Kd in assay [3] is 0.0074 µM.

B3: FIXa-Y155F/R338E/T343R/R403E/E410N (enzyme)
chain 1: YNSGKLEEFVQGNLERECMEEKCSFEEAREVFENTERTTEFWKQYVDGDQCESNPCLNGGSCKDDINSYECWCPFGFEGKNCELDVTCNIKNGRCEQFCKNSADNKVVCSCTEGYRLAENQKSCEPAVPFPCGRVSVSQTSKLTR
chain 2: VVGGEDAKPGQFPWQVVLNGKVDAFCGGSIVNEKWIVTAAHCVETGVKITVVAGEHNIEETEHTEQKRNVIRIIPHHNYNAAINKYNHDIALLELDEPLVLNSYVTPICIADKEYTNIFLKFGSGYVSGWGRVFHKGRSALVLQYLRVPLVDRATCLESTKFRIYNNMFCAGFHEGGRDSCQGDSGGPHVTEVEGTSFLTGIISWGEECAMKGKYGIYTKVSEYVNWIKNKTKLT
Take B3: in assay [3], the Kd came to 0.0285 µM.

B4: FIXa-Y155F/R318Y/R338E/T343R (enzyme)
chain 1: YNSGKLEEFVQGNLERECMEEKCSFEEAREVFENTERTTEFWKQYVDGDQCESNPCLNGGSCKDDINSYECWCPFGFEGKNCELDVTCNIKNGRCEQFCKNSADNKVVCSCTEGYRLAENQKSCEPAVPFPCGRVSVSQTSKLTR
chain 2: VVGGEDAKPGQFPWQVVLNGKVDAFCGGSIVNEKWIVTAAHCVETGVKITVVAGEHNIEETEHTEQKRNVIRIIPHHNYNAAINKYNHDIALLELDEPLVLNSYVTPICIADKEYTNIFLKFGSGYVSGWGRVFHKGYSALVLQYLRVPLVDRATCLESTKFRIYNNMFCAGFHEGGRDSCQGDSGGPHVTEVEGTSFLTGIISWGEECAMKGKYGIYTKVSRYVNWIKEKTKLT
B4: in assay [3], the Kd amounted to 0.0084 µM.

B5: FIXa variant D104N/K106S/I251S/R318Y/R338E/E410N (enzyme)
light: YNSGKLEEFVQGNLERECMEEKCSFEEAREVFENTERTTEFWKQYVDGDQCESNPCLNGGSCKDDINSYECWCPFGFEGKNCELDVTCNIKNGRCEQFCKNSANNSVVCSCTEGYRLAENQKSCEPAVPFPCGRVSVSQTSKLTR
heavy: VVGGEDAKPGQFPWQVVLNGKVDAFCGGSIVNEKWIVTAAHCVETGVKITVVAGEHNIEETEHTEQKRNVSRIIPHHNYNAAINKYNHDIALLELDEPLVLNSYVTPICIADKEYTNIFLKFGSGYVSGWGRVFHKGYSALVLQYLRVPLVDRATCLESTKFTIYNNMFCAGFHEGGRDSCQGDSGGPHVTEVEGTSFLTGIISWGEECAMKGKYGIYTKVSRYVNWIKNKTKLT
In the case of B5, in assay [1], the KD-WT/KD-mut was 7.7 fold. Moreover, the Kd in assay [2] stood at 0.0124 µM.
